Experiment: yeast display, Sf9 membrane polyspecificity reagent, FACS + sequencing; frameworks hold sequencing errors
In short: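 Nanobodies came from a synthetic yeast display library in Saccharomyces cerevisiae BJ5465, induced with galactose for 36–48 hours and stained for 1 hour at 4 °C with 10% biotinylated, detergent-solubilized Sf9 membrane reagent. Cells were enriched on streptavidin microbeads and then FACS-sorted, with low and high (top ~1%) gates set on anti-HA fluorescence for expression and streptavidin fluorescence for reagent binding. Each polyreactivity label reflects the gate a clone came from. Genes were amplified by colony PCR, sequenced by MiSeq 2 × 250 and filtered by CDR length.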

QVQLVESGGGLVQAGGSLRLSCAASGFIYPRNTMGWYRQAPGKERELVAAITWIGGRTYYADSVKGRFTISRDNAKNTVYLQMNSLKPEDTAVYYCAADYSVFYDEDYWGQGTQVTVSS
polyreactivity (PSR sort gate): low polyreactivity

QVQLVESGGGLVQAGGSLRLSCAASGFIYRLNAMGWYRQAPGKERELVAAISTYADSVKGRFTFSRDNAKTTVYLQMNSLKPEDTAVYYCAKDYTDSYAYRTGFDYWGQGTQVTVSS
polyreactivity (PSR sort gate): low polyreactivity

QVQLVESGGGLVQAGGSLRLSCAASGFIYRVYGMGWYRQAPVKERELLAAISGRGGSTYYADSVKGRFTISRDNANNTVYLQMHSLKPEDTAVYYCYTLDIRTYSKYDYWGQGTQVTVSS
polyreactivity (PSR sort gate): high polyreactivity

QVQLVESGGGLVQAGGSLRLSCAASGFIYWYYAMGWYRQAPGKERELVAAISGTGGTTYYADSVKGRFTISRDNAKNTVYLQMKSLKPEDTAVYYCNDRYDSRRTAIGYDYWGQGTQVTGSS
polyreactivity (PSR sort gate): low polyreactivity

QVQLVESGGGLVQAGGSLRLSCAASGFIYYGYAMGWYRQAPGKEMELVAAITSGGSTTYADSVKGRFTISRDNAKNTVYLQMNSLKPVDTAVYYGAASVCREVGWGQGTQVTVSS
polyreactivity (PSR sort gate): high polyreactivity

QVQLVESGGGLVQAGGSLRLSCAASGFLFRYYTMGWYRQAPGKERDLVAVITRGGSTYYADSVKGRFTISRDNAKNTVYLQMNSLKPEDTAVYYCAAVRTKVWRGPEMDYWGQGTQVTVSS
polyreactivity (PSR sort gate): high polyreactivity

QVQLVESGGGLVQAGGSLRLSCAASGFNFDANPLGWYRQAAGKERELVAAISWSGGSTYYADSVKGRFTISRDYANNSVYLQMNTLKPEDTAVYYCAADILGYSYEYWGQGTQVTVSS
polyreactivity (PSR sort gate): high polyreactivity

QVQLVESGGGLVQAGGSLRLSCAASGFNFDENAMGWYRQAPGKEREFYAAISISGSSTYADSVKGRFTISRDNAKNTVYLQMNCLKPEDTAVYFCAASYTTEYTGDGHSGVGDGDYWGQGTQVTVSS
polyreactivity (PSR sort gate): low polyreactivity

QVQLVESGGGLVQAGGSLRLSCAASGFNFDFYAMGWYRQAPGKEREMVAAISKNDGTTYFAYSVKGRFTISRDNAKNTVYLQMNSLKPEDTAVYFCAAESGYPVYTYVSSGVYWGQGTQVTVSS
polyreactivity (PSR sort gate): low polyreactivity

QVQLVESGGGLVQAGGSLRLSCAASGFNFDYNAMGWYRQAPGKERELVAAISWSGGRTYYADSVKGRFTISRDNAKNTVYLQMNSLKPEDTAVYYCAARARNYPPYNYWGQGTQVTVSS
polyreactivity (PSR sort gate): high polyreactivity

QVQLVESGGGLVQAGGSLRLSCAASGFNFNKNAMGWYRQAPGKERELVAAISGTGGSTYYADSVKVRFTISRDNAKNTVYLQMNSLKPEDTAVYFCASRRYRQFSTGGQPGYYWGQGTLVTVSS
polyreactivity (PSR sort gate): high polyreactivity

QVQLVESGGGLVQAGGSLRLSCAASGFNFRYYTMGWYRQAPGTERELVAVITSGGTTYYADSVKGRFTISRDNAKNTVYLQMNSLKPEDTAVYYCAADYRPRLYGVGVDYWGQGTQVTVSS
polyreactivity (PSR sort gate): low polyreactivity

QVQLVESGGGLVQAGGSLRLSCAASGFNFSPYAMGWYRQAPGKERELVAAISSSGGSTYYADSVKGRFTISRDNAKNTVYLQMNSLKPEDTAVYYCNAAGGYRTSPSDYWGQGTQVTVSS
polyreactivity (PSR sort gate): high polyreactivity

QVQLVESGGGLVQAGGSLRLSCAASGFNFSYYAMGWYRHAPGKEWELVAAISRSGGSTYYADSVKGRFTISRDNAKNTVYLQMNSLKPEDTAVYYCAKRIKDRSGEAYVGLYYWGQGTQVTVSS
polyreactivity (PSR sort gate): high polyreactivity

QVQLVESGGGLVQAGGSLRLSCAASGFNFYYYAMGWYRQAPGKERELVAVLTESGSSTYYADSVKGRFTISRDNAKNTVYLQMNSLKPEDSAVYYCNADFWPFTGKYDSVHLDYWGQATQVTVSS
polyreactivity (PSR sort gate): low polyreactivity

QVQLVESGGGLVQAGGSLRLSCAASGFNIASYDMGWYRQAPGKERELVAAISKGGGRTYYADSVKGRFTISRDIAKNTVYLQMNSLKPEDTAVDYCAAEYRGYLHYHFQYLFDYWGQGTQVNVSS
polyreactivity (PSR sort gate): low polyreactivity

QVQLVESGGGLVQAGGSLRLSCAASGFPFPDYAMGWYRQAPGKERELVAGISSTGDSTYYADSVKGRFTISRDNAKNTVYLQMNSLKPEDTAVYYCNAAQERPIIILFSKYDYWGQGTQVTVSS
polyreactivity (PSR sort gate): low polyreactivity

QVQLVESGGGLVQAGGSLRLSCAASGFSFRVYTMGWYRQAPGKERELVAAISYRGGRTYYADTVKGRFTISRDNAKNNVYLQMNSLKPEDSALYYCAATAIYPSAWRMDYWGQGTLVTVSS
polyreactivity (PSR sort gate): high polyreactivity

QVQLVESGGGLVQAGGSLRLSCAASGFSIAYYAMGWYRQEPGKERELVAAISRRGGSTYYADSVKGRFTISRDNAKNTVYLQMNSLKPEDTAVYYCAKAHYLSDYNYWGQGTQVTVSS
polyreactivity (PSR sort gate): high polyreactivity

QVQLVESGGGLVQAGGSLRLSCAASGFTASYAMGWYRQAPWKERELVATINSGGGSTRYADSVKGRFTISRDNAKNTVYLQMNSLKPEDTAVYYCAKRWRRNFDYWGQGTQVTVSS
polyreactivity (PSR sort gate): high polyreactivity

QVQLVESGGGLVQAGGSLRLSCAASGFTCSRYAMGWYRQAPGKERELVAAISSGGSTNYADSVKGRFTISRDNAKNTVYLQMNSLKPEDTAVYYCAVTWRYKGYYWGQGTQVTVSS
polyreactivity (PSR sort gate): high polyreactivity

QVQLVESGGGLVQAGGSLRLSCAASGFTCVPYAMGWYSQAPGKARELVAAITGGGSTYYADSVKGRFTISRDNAKNTVYFQMHSLKPEDTAVYYCAAREARSHRYSNRVYYWGQGTQVTVSS
polyreactivity (PSR sort gate): high polyreactivity

Source: the nanobody polyreactivity screen of Harvey et al. (2022)
